Laboratory results as given in patent publication US20160207995A1 (Genentech, published 2016).
Each block holds one binder with its values, some of them ahead of it.

How the values were obtained:
[1] = target: T1, human interleukin-4 (IL-4) (human, UniProt P05112 25-153, biotinylated in the competition ELISAs); assay: SPR (BIAcore A100): IgG captured by anti-human Fcγ antibody, recombinant IL-4 injected, 1:1 Langmuir fit
T1 construct: Commercial human IL-4 (R&D Systems); also called human IL-4; biotinylated IL-4
T1 sequence: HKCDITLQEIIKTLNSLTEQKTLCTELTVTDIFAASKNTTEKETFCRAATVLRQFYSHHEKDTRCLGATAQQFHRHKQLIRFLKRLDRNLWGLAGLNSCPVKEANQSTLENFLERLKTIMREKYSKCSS

[2] = target: T1, human interleukin-4 (IL-4); assay: SPR Biacore
[3] = target: T1, human interleukin-4 (IL-4); assay: SPR BIAcore A100; IgG captured on anti-human Fcγ, recombinant IL-4 injected, 1:1 model
human IL-13 [4] = target: T2, human IL-13 (human, UniProt P35225 33-146, biotinylated in the IL-13Rα2 competition ELISA); assay: cell-based or functional assay
[5] = target: T1, human interleukin-4 (IL-4); assay: cell-based or functional assay
human IL-13 [6] = target: T2, human IL-13; assay: SPR Biacore 3000; antibody captured on anti-human Fc, cytokine 0-50 nM injected, 25 °C, 1:1 Langmuir model
[7] = target: T1, human interleukin-4 (IL-4); assay: as above
human IL-13 R130Q = target: T3, human IL-13 R130Q (human, UniProt P35225 25-146, biotinylated in the IL-13Rα1 competition ELISA); assay: as above
T3 construct: also called biotinylated IL-13 R130Q

cynomolgus monkey IL-4 = target: T4, cynomolgus monkey IL-4 (cynomolgus monkey, UniProt P79339 25-153); assay: as above
T4 construct: Made at Genentech; also called cyno IL-4
T4 sequence: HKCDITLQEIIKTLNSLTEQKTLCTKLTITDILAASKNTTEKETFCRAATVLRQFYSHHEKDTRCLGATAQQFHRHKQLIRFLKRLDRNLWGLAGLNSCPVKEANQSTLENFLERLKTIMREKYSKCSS

cynomolgus monkey IL-13 = target: T5, cynomolgus monkey IL-13 (cynomolgus monkey, UniProt Q5I6E4 19-132 (Macaca thibetana entry), limits assumed); assay: as above
T5 construct: also called cyno IL-13
T5 chain: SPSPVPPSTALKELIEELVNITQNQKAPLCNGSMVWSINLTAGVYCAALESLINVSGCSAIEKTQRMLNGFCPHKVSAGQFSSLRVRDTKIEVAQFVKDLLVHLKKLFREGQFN

[8] = target: T1, human interleukin-4 (IL-4); assay: competition ELISA: antibody premixed with biotinylated human IL-4 (5.8 ng/ml), then added to plate-coated human IL-4R; streptavidin-HRP, OD 450 nm
human IL-13 [9] = target: T2, human IL-13; assay: competition ELISA: antibody premixed with biotinylated human IL-13 (0.056 µg/ml), then added to plate-coated human IL-13Rα2-Fc; streptavidin-HRP, OD 450 nm
[10] = target: T1, human interleukin-4 (IL-4); assay: SPR
[11] = target: T1, human interleukin-4 (IL-4); assay: cell-based or functional assay; remark: listed apart in the source

- Kd [1]: 24 pM
B1: HuVHI / HuKI (antibody, V domains shown)
VH: QVQLVQSGAEVKKPGASVKVSCKASGYTFTDYSMHWVRQAPGQGLEWMVWINTETGEPTYADDFKGRVTITRDTSTSTAYLELSSLRSEDTAVYYCARGGIFYGMDYWGQGTLVTVSS
VL: DIQMTQSPSSLSASVGDRVTITCKASQSVINDAAWYQQKPGKAPKLLIYYTSHRYTGVPSRFSGSGSGTDFTLTISSLQPEDFATYYCQQDYTSPWTFGQGTKVEIKR
notes: also called humanized 19C11-VH1 graft/κ1 graft

- binding result [2]: binds
B2: humanized antibody 19C11-VH3.LA.SV/κ1 graft (anti-IL-4) (antibody, V domains shown)
VH: EVQLVESGGGLVQPGGSLRLSCAASGYTFTDYSMHWVRQAPGKGLEWVVWINTETGEPTYADSVKGRFTISLDNSKNTAYLQMNSLRAEDTAVYYCARGGIFYGMDYWGQGTLVTVSS
VL: DIQMTQSPSSLSASVGDRVTITCKASQSVINDAAWYQQKPGKAPKLLIYYTSHRYTGVPSRFSGSGSGTDFTLTISSLQPEDFATYYCQQDYTSPWTFGQGTKVEIKR
notes: Parental (monospecific) humanized anti-IL-4 antibody; also called parental anti-IL-4 antibody; hu19C11

- Kd [3]: 11 pM
B3: humanized 19C11-VH1.FFL/κ3 graft (antibody, V domains shown)
VH: QVQLVQSGAEVKKPGASVKVSCKASGYTFTDYSMHWVRQAPGQGLEWMVWINTETGEPTYADDFKGRFTFTLDTSTSTAYLELSSLRSEDTAVYYCARGGIFYGMDYWGQGTLVTVSS
VL: EIVLTQSPATLSLSPGERATLSCKASQSVINDAAWYQQKPGQAPRLLIYYTSHRYTGIPARFSGSGSGTDFTLTISSLEPEDFAVYYCQQDYTSPWTFGQGTKVEIKR
notes: Human IgG expressed in 293 cells; also called 19C11-VH1.FFL with 19C11-κ3 graft

- Kd [1]: 84 pM
B4: HuVHIII / HuKI (antibody, V domains shown)
VH: EVQLVESGGGLVQPGGSLRLSCAASGYTFTDYSMHWVRQAPGKGLEWVVWINTETGEPTYADDFKGRFTISRDNSKNTLYLQMNSLRAEDTAVYYCARGGIFYGMDYWGQGTLVTVSS
VL: DIQMTQSPSSLSASVGDRVTITCKASQSVINDAAWYQQKPGKAPKLLIYYTSHRYTGVPSRFSGSGSGTDFTLTISSLQPEDFATYYCQQDYTSPWTFGQGTKVEIKR
notes: also called humanized 19C11-VH3 graft/κ1 graft

- Kd [1]: 140 pM
B5: HuVHIII (FLA) / HuKI (antibody, V domains shown)
VH: EVQLVESGGGLVQPGGSLRLSCAASGYTFTDYSMHWVRQAPGKGLEWVVWINTETGEPTYADDFKGRFTFSLDNSKNTAYLQMNSLRAEDTAVYYCARGGIFYGMDYWGQGTLVTVSS
VL: DIQMTQSPSSLSASVGDRVTITCKASQSVINDAAWYQQKPGKAPKLLIYYTSHRYTGVPSRFSGSGSGTDFTLTISSLQPEDFATYYCQQDYTSPWTFGQGTKVEIKR
notes: also called humanized 19C11-VH3.FLA/κ1 graft

- IC50 of TF-1 proliferation inhibition assay (IL-13) (human IL-13 [4]): 0.03 µg/mL
- IC50 of TF-1 proliferation inhibition assay (IL-4) [5]: 0.06 µg/mL
- Kd (human IL-13 [6]): 23 pM
- koff (human IL-13 [6]): 1.7e-05 s⁻¹
- kon (human IL-13 [6]): 714000 M⁻¹ s⁻¹
- Kd [7]: 68 pM
- koff [7]: 8.48e-05 s⁻¹
- kon [7]: 1.34e+06 M⁻¹ s⁻¹
B6: anti-IL-4/IL-13 IgG1 bispecific antibody (knobs-into-holes) (bispecific antibody)
heavy 1: not shown
light 1: DIQMTQSPSSLSASVGDRVTITCKASQSVINDAAWYQQKPGKAPKLLIYYTSHRYTGVPSRFSGSGSGTDFTLTISSLQPEDFATYYCQQDYTSPWTFGQGTKVEIKRTVAAPSVFIFPPSDEQLKSGTASVVCLLNNFYPREAKVQWKVDNALQSGNSQESVTEQDSKDSTYSLSSTLTLSKADYEKHKVYACEVTHQGLSSPVTKSFNRGEC
heavy 2: not shown
light 2: DIVLTQSPDSLSVSLGERATINCRASKSVDSYGNSFMHWYQQKPGQPPKLLIYLASNLESGVPDRFSGSGSGTDFTLTISSLQAEDVAVYYCQQNNEDPRTFGGGTKVEIKRTVAAPSVFIFPPSDEQLKSGTASVVCLLNNFYPREAKVQWKVDNALQSGNSQESVTEQDSKDSTYSLSSTLTLSKADYEKHKVYACEVTHQGLSSPVTKSFNRGEC
notes: Half antibodies made in E. coli (not glycosylated) and assembled by redox chemistry; Anti-IL-4 arm is the hole, anti-IL-13 arm the knob; also called anti-IL-4/IL-13 IgG1-isotype

- IC50 of TF-1 proliferation inhibition assay (IL-13) (human IL-13 [4]): 0.03 µg/mL
- IC50 of TF-1 proliferation inhibition assay (IL-4) [5]: 0.05 µg/mL
- Kd (human IL-13 [6]): 56 pM
- koff (human IL-13 [6]): 3.01e-05 s⁻¹
- kon (human IL-13 [6]): 537000 M⁻¹ s⁻¹
- Kd (human IL-13 R130Q): 142 pM
- koff (human IL-13 R130Q): 2.62e-05 s⁻¹
- kon (human IL-13 R130Q): 184000 M⁻¹ s⁻¹
- Kd (cynomolgus monkey IL-4): 76 pM
- koff (cynomolgus monkey IL-4): 0.000151 s⁻¹
- kon (cynomolgus monkey IL-4): 2.02e+06 M⁻¹ s⁻¹
- Kd (cynomolgus monkey IL-13): 48 pM
- koff (cynomolgus monkey IL-13): 2.83e-05 s⁻¹
- kon (cynomolgus monkey IL-13): 608000 M⁻¹ s⁻¹
- Kd [7]: 46 pM
- koff [7]: 0.000133 s⁻¹
- kon [7]: 2.87e+06 M⁻¹ s⁻¹
- IC50 (read off the curve) [8]: ~0.2 µg/mL
- IC50 (read off the curve) (human IL-13 [9]): ~0.2 µg/mL
B7: anti-IL-4/IL-13 IgG4 bispecific antibody (knobs-into-holes, S228P, wild-type R409) (bispecific antibody)
heavy 1: EVQLVESGGGLVQPGGSLRLSCAASGYTFTDYSMHWVRQAPGKGLEWVVWINTETGEPTYADSVKGRFTISLDNSKNTAYLQMNSLRAEDTAVYYCARGGIFYGMDYWGQGTLVTVSSASTKGPSVFPLAPCSRSTSESTAALGCLVKDYFPEPVTVSWNSGALTSGVHTFPAVLQSSGLYSLSSVVTVPSSSLGTKTYTCNVDHKPSNTKVDKRVESKYGPPCPPCPAPEFLGGPSVFLFPPKPKDTLMISRTPEVTCVVVDVSQEDPEVQFNWYVDGVEVHNAKTKPREEQFNSTYRVVSVLTVLHQDWLNGKEYKCKVSNKGLPSSIEKTISKAKGQPREPQVYTLPPSQEEMTKNQVSLSCAVKGFYPSDIAVEWESNGQPENNYKTTPPVLDSDGSFFLVSRLTVDKSRWQEGNVFSCSVMHEALHNHYTQKSLSLSLGK
light 1: DIQMTQSPSSLSASVGDRVTITCKASQSVINDAAWYQQKPGKAPKLLIYYTSHRYTGVPSRFSGSGSGTDFTLTISSLQPEDFATYYCQQDYTSPWTFGQGTKVEIKRTVAAPSVFIFPPSDEQLKSGTASVVCLLNNFYPREAKVQWKVDNALQSGNSQESVTEQDSKDSTYSLSSTLTLSKADYEKHKVYACEVTHQGLSSPVTKSFNRGEC
heavy 2: not shown
light 2: DIVLTQSPDSLSVSLGERATINCRASKSVDSYGNSFMHWYQQKPGQPPKLLIYLASNLESGVPDRFSGSGSGTDFTLTISSLQAEDVAVYYCQQNNEDPRTFGGGTKVEIKRTVAAPSVFIFPPSDEQLKSGTASVVCLLNNFYPREAKVQWKVDNALQSGNSQESVTEQDSKDSTYSLSSTLTLSKADYEKHKVYACEVTHQGLSSPVTKSFNRGEC
notes: Half antibodies made in E. coli (not glycosylated) and assembled by redox chemistry; also called anti-IL-4/IL-13 bispecific antibody; anti-IL-4/IL-13 IgG4-isotype

- Kd [10]: ≤ 10 pM
- IC50 for blocking IL-4-induced proliferation of TF-1 cells [11]: 0.014 µg/mL
B8: mu19C11 (clone 19C11, murine anti-human IL-4 monoclonal antibody) (antibody, V domains shown)
VH: QIQLVQSGPELKKPGETVKISCKASGYTFTDYSMHWMKQAPGKGLKWMVWINTETGEPTYADDFKGRFAFSLETSANTAYLKINNLKNEDTATYFCARGGIFYGMDYWGQGTSVTVSS
VL: SIVMTQTPKFLLISAGDRVTITCKASQSVINDAAWYQQKPGQSPRLLIYYTSHRYTGVPDRFTGSGYGTDFTFTISTVQAEDLAVYFCQQDYTSPWTFGGGTKLEIKR
notes: Mouse hybridoma IgG (BALB/c); Tested as hybridoma supernatant IgG or purified IgG

- Kd [1]: < 10 pM
B9: 19C11 Chimera (antibody, V domains shown)
VH: QIQLVQSGPELKKPGETVKISCKASGYTFTDYSMHWMKQAPGKGLKWMVWINTETGEPTYADDFKGRFAFSLETSANTAYLKINNLKNEDTATYFCARGGIFYGMDYWGQGTSVTVSS
VL: SIVMTQTPKFLLISAGDRVTITCKASQSVINDAAWYQQKPGQSPRLLIYYTSHRYTGVPDRFTGSGYGTDFTFTISTVQAEDLAVYFCQQDYTSPWTFGGGTKLEIKR
notes: also called chimeric 19C11 (mouse variable regions with human IgG constant regions)

- Kd [1]: 26 pM
B10: HuVHIII / HuKIII (antibody, V domains shown)
VH: EVQLVESGGGLVQPGGSLRLSCAASGYTFTDYSMHWVRQAPGKGLEWVVWINTETGEPTYADDFKGRFTISRDNSKNTLYLQMNSLRAEDTAVYYCARGGIFYGMDYWGQGTLVTVSS
VL: EIVLTQSPATLSLSPGERATLSCKASQSVINDAAWYQQKPGQAPRLLIYYTSHRYTGIPARFSGSGSGTDFTLTISSLEPEDFAVYYCQQDYTSPWTFGQGTKVEIKR
notes: also called humanized 19C11-VH3 graft/κ3 graft

- Kd [3]: 11 pM
B11: humanized 19C11-VH3.FLA/κ3 graft (antibody, V domains shown)
VH: EVQLVESGGGLVQPGGSLRLSCAASGYTFTDYSMHWVRQAPGKGLEWVVWINTETGEPTYADDFKGRFTFSLDNSKNTAYLQMNSLRAEDTAVYYCARGGIFYGMDYWGQGTLVTVSS
VL: EIVLTQSPATLSLSPGERATLSCKASQSVINDAAWYQQKPGQAPRLLIYYTSHRYTGIPARFSGSGSGTDFTLTISSLEPEDFAVYYCQQDYTSPWTFGQGTKVEIKR
notes: Human IgG expressed in 293 cells; also called 19C11-VH3.FLA with 19C11-κ3 graft
